The source of these data is PMC3964825 (Biochemistry, 2013).

Several values for one entry are separate records, joined by “and”; a condition that tells them apart may be missing. Equal values may be shown once.

Data set [1] deals with the molecule itself. The experiment in a line: native gel or EMSA.
Data set [2] deals with the molecule itself. The experiment in a line: native MS.

B1: EZH2-EED heterodimer (FLAG-EZH2–6×HIS-EED) (complex)
chain 1: not shown
chain 2: not shown
For the protein B1, the “stoichiometry N” value in data set [1] is at most 4; in data set [2], 2 and 3.

Broadly, the stoichiometry N is the number of molecules, sites or subunits per partner or assembly.
